Results taken from the supplement of paper PMC10567573.

B1: KRT13 (parent)
chain: TPGIDLTRVLAEMREQYEAMAERN

Variants of: B1
Test: protein stability index of a GFP-peptide fusion (GPS, HEK-293T) (PSI 1-6); higher = more stable
Details: c terminus: a fixed tail appended
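Also: lentivirally expressed fusions sorted by FACS into six bins by GFP to DsRed ratio, PSI derived from sequencing read proportions per bin multiplied by bin number.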

Row | Variant | protein stability index
1 | TPGIDLTRVLLEMREQYEAMAERN [A11L] | 3.51
2 | TPGIDLTRVLHEMREQYEAMAERN [A11H] | 3.95
3 | TPGIDLTRVLFEMREQYEAMAERN [A11F] | 3.7
4 | TPGIDLTRVLYEMREQYEAMAERN [A11Y] | 3.74
5 | TPGIDLTRVLNEMREQYEAMAERN [A11N] | 3.77
6 | TPGIDLTRVLDEMREQYEAMAERN [A11D] | 4.01
7 | TPGIDLTRVLTEMREQYEAMAERN [A11T] | 3.88
8 | TPGIDLTRVLQEMREQYEAMAERN [A11Q] | 2.85
9 | TPGIDLTRVLKEMREQYEAMAERN [A11K] | 4.23
10 | TPGIDLTRVLSEMREQYEAMAERN [A11S] | 4.61
11 | TPGIDLTRVLVEMREQYEAMAERN [A11V] | 3.79
12 | TPGIDLTRVLIEMREQYEAMAERN [A11I] | 3.51
13 | TPGIDLTRVLPEMREQYEAMAERN [A11P] | 4.65
14 | TPGIDLTRVLMEMREQYEAMAERN [A11M] | 2.79
15 | TPGSDLTRVLAEMREQYEAMAERN [I4S] | 4.48
16 | TPGYDLTRVLAEMREQYEAMAERN [I4Y] | 3.75
17 | TPGRDLTRVLAEMREQYEAMAERN [I4R] | 4.14
18 | TPGTDLTRVLAEMREQYEAMAERN [I4T] | 3.31
19 | TPGVDLTRVLAEMREQYEAMAERN [I4V] | 3.8
20 | TPGIDLTRQLAEMREQYEAMAERN [V9Q] | 4.41
21 | TPGIDLTRILAEMREQYEAMAERN [V9I] | 3.06
22 | TPGIDLTRKLAEMREQYEAMAERN [V9K] | 4.34
23 | TPGIDLTRMLAEMREQYEAMAERN [V9M] | 3.94
24 | TPGIDLTRLLAEMREQYEAMAERN [V9L] | 2.25

Row | Variant | protein stability index
25 | TPGIDLTRCLAEMREQYEAMAERN [V9C] | 4.47
26 | TPGIDLTRRLAEMREQYEAMAERN [V9R] | 4.56
27 | TPGIDLTRNLAEMREQYEAMAERN [V9N] | 4.86
28 | TPGIDLTRPLAEMREQYEAMAERN [V9P] | 4.49
29 | TPGIDLTRDLAEMREQYEAMAERN [V9D] | 4.54
30 | TPGIDLTRHLAEMREQYEAMAERN [V9H] | 4.47
31 | TPGIDLTRTLAEMREQYEAMAERN [V9T] | 3.85
32 | TPGIDLTRSLAEMREQYEAMAERN [V9S] | 3.41
33 | TPGIDLTRELAEMREQYEAMAERN [V9E] | 4.71
34 | TPGIDLTRYLAEMREQYEAMAERN [V9Y] | 3.01
35 | TPGIDLTRVLAEAREQYEAMAERN [M13A] | 4.67
36 | TPGIDLTRVLAEKREQYEAMAERN [M13K] | 4.24
37 | TPGIDLTRVLAENREQYEAMAERN [M13N] | 5.48
38 | TPGIDLTRVLAESREQYEAMAERN [M13S] | 4.7
39 | TPGIDLTRVLAECREQYEAMAERN [M13C] | 4.23
40 | TPGIDLTRVLAEVREQYEAMAERN [M13V] | 3.3
41 | TPGIDLTRVLAEQREQYEAMAERN [M13Q] | 4.1
42 | TPGIDLTRVLAEEREQYEAMAERN [M13E] | 5.33
43 | TPGIDLTRVLAETREQYEAMAERN [M13T] | 4.53
44 | TPGIDLTRVLAERREQYEAMAERN [M13R] | 4.93
45 | TPGIDLTRVLAEPREQYEAMAERN [M13P] | 3.3
46 | TPGIDLTRVLAEIREQYEAMAERN [M13I] | 3.71
47 | TPGIDLTRVLAEYREQYEAMAERN [M13Y] | 4.11
48 | TPGIDLTRVLAEHREQYEAMAERN [M13H] | 4.74

Row | Variant | protein stability index
49 | TPGIDLTRVLAEGREQYEAMAERN [M13G] | 4.72
50 | TPGIDLTRVLAEDREQYEAMAERN [M13D] | 5.36
51 | TPGIDLTRVLAEMRFQYEAMAERN [E15F] | 3.26
52 | TPGIDLTRVLAEMRMQYEAMAERN [E15M] | 2.91
53 | TPGIDLTRVLAEMRIQYEAMAERN [E15I] | 2.85
54 | TPGIDLTRVLAEMRSQYEAMAERN [E15S] | 3.61
55 | TPGIDLTRVLAEMRWQYEAMAERN [E15W] | 2.07
56 | TPGIDLTRVLAEMRDQYEAMAERN [E15D] | 4.24
57 | TPGIDLTRVLAEMRQQYEAMAERN [E15Q] | 3.28
58 | TPGIDLTRVLAEMRHQYEAMAERN [E15H] | 3.45
59 | TPGIDLTRVLAEMRLQYEAMAERN [E15L] | 3.04
60 | TPGIDLTRVLAEMRPQYEAMAERN [E15P] | 3.83
61 | TPGIDLTRVLAEMRRQYEAMAERN [E15R] | 3.11
62 | TPGIDLTRVLAEMRGQYEAMAERN [E15G] | 3.82
63 | TPGIDLTRVLAEMRVQYEAMAERN [E15V] | 2.24
64 | TPGIDLTRVLAEMRKQYEAMAERN [E15K] | 3.83
65 | TPGIDLTRVLAEMRTQYEAMAERN [E15T] | 3.43
66 | TPGIDLTRVLAEMRAQYEAMAERN [E15A] | 3.47
67 | TPGIDLTRVLAEMRYQYEAMAERN [E15Y] | 2.42
68 | TPGIDLTRVLAEMRCQYEAMAERN [E15C] | 3.34
69 | TPGIHLTRVLAEMREQYEAMAERN [D5H] | 4.29
70 | TPGIKLTRVLAEMREQYEAMAERN [D5K] | 2.21
71 | TPGIWLTRVLAEMREQYEAMAERN [D5W] | 1.72
72 | TPGIILTRVLAEMREQYEAMAERN [D5I] | 2.66

Row | Variant | protein stability index
73 | TPGIPLTRVLAEMREQYEAMAERN [D5P] | 4.69
74 | TPGIALTRVLAEMREQYEAMAERN [D5A] | 5.15
75 | TPGITLTRVLAEMREQYEAMAERN [D5T] | 3.68
76 | TPGINLTRVLAEMREQYEAMAERN [D5N] | 3.88
77 | TPGIQLTRVLAEMREQYEAMAERN [D5Q] | 3.8
78 | TPGIMLTRVLAEMREQYEAMAERN [D5M] | 3.81
79 | TPGICLTRVLAEMREQYEAMAERN [D5C] | 2.73
80 | TPGIVLTRVLAEMREQYEAMAERN [D5V] | 2.63
81 | TPGIELTRVLAEMREQYEAMAERN [D5E] | 4.54
82 | TPGIGLTRVLAEMREQYEAMAERN [D5G] | 1.58
83 | TPGISLTRVLAEMREQYEAMAERN [D5S] | 3.86
84 | TPGIFLTRVLAEMREQYEAMAERN [D5F] | 2.19
85 | TPGIDLTRVLAEMTEQYEAMAERN [R14T] | 4.44
86 | TPGIDLTRVLAEMWEQYEAMAERN [R14W] | 4.01
87 | TPGIDLTRVLAEMNEQYEAMAERN [R14N] | 4.55
88 | TPGIDLTRVLAEMDEQYEAMAERN [R14D] | 5.07
89 | TPGIDLTRVLAEMQEQYEAMAERN [R14Q] | 4.46
90 | TPGIDLTRVLAEMVEQYEAMAERN [R14V] | 3.14
91 | TPGIDLTRVLAEMCEQYEAMAERN [R14C] | 3.04
92 | TPGIDLTRVLAEMMEQYEAMAERN [R14M] | 3.69
93 | TPGIDLTRVLAEMSEQYEAMAERN [R14S] | 3.74
94 | TPGIDLTRVLAEMKEQYEAMAERN [R14K] | 3.69
